Our source for the Kd values is PMC10221487.

For assay [1], the target named is ZV54^ΔXF (ZV54 mAb expressed in glycoengineered ΔXF N. benthamiana plants). As to the kind of experiment: SPR. The settings on record: remark: other sources report otherwise.
The target of assay [2] is ZV54^CHO (CHO cell-derived ZV54 mAb). As to the kind of experiment: SPR. To be noted: remark: other sources report otherwise.

B1: recombinant human FcγRIIA ectodomain, P12318 34-217 (receptor)
chain: QAAAPPKAVLKLEPPWINVLQEDSVTLTCQGARSPESDSIQWFHNGNLIPTHTQPSYRFKANNNDSGEYTCQTGQTSLSDPVHLTVLSEWLVLQTPHLEFQEGETIMLRCHSWKDKPLVKVTFFQNGKSQKFSHLDPTFSIPQANHSHSGDYHCTGNIGYTLFSSKPVTITVQVPSMGSSSPMG
modifications: not checked
Consider B1, for which the Kd in assay [1] is 1890 nM; in assay [2], 662 nM.

The Kd is a measure of binding affinity in units of concentration. A high value points to a looser complex.
